Laboratory results published in the supplement of paper PMC9112550, “Optimization of the antimicrobial peptide Bac7 by deep mutational scanning” (BMC Biology, 2022).

Tested on: Escherichia coli TOP10
Experiment: shrunken log2 fold change of peptide-encoding DNA abundance (4.5 h post-induction vs induction); higher = less antimicrobial activity (less host growth inhibition)
Conditions: time post-induction: 4.5 h; library: site-saturation at positions 5, 18, 19, 20
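Also: peptides expressed intracellularly from a pBAD plasmid library in pooled LB shake-flask culture, induced with 0.3% L-arabinose, DNA abundance read by NGS, three biological replicates, DESeq2 with apeglm shrinkage.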

Sequence | shrunken log2 fold change
RRIRCRPPRLPRPRPRPEEHPRP | -0.0578
RRIRCRPPRLPRPRPRPSFNPRP | -0.882
RRIRFRPPRLPRPRPRPYPCPRP | -0.0436
RRIRKRPPRLPRPRPRPAFDPRP | 0.451
RRIRERPPRLPRPRPRPPILPRP | -0.471
RRIRMRPPRLPRPRPRPNRQPRP | 0.108
RRIRTRPPRLPRPRPRPGCTPRP | -0.0907
RRIRKRPPRLPRPRPRPASKPRP | -0.25
RRIRKRPPRLPRPRPRPLGKPRP | 0.39
RRIRPRPPRLPRPRPRPQMIPRP | -0.594
RRIRMRPPRLPRPRPRPWFFPRP | -0.0229
RRIRLRPPRLPRPRPRPKDQPRP | -0.271
RRIRGRPPRLPRPRPRPQAFPRP | 0.112
RRIRFRPPRLPRPRPRPVNKPRP | -0.492
RRIRFRPPRLPRPRPRPKVAPRP | 0.192
RRIRLRPPRLPRPRPRPQCSPRP | -0.127
RRIRVRPPRLPRPRPRPNLVPRP | -0.2
RRIRWRPPRLPRPRPRPGFCPRP | 0.524
RRIRRRPPRLPRPRPRPMLLPRP | -0.0984
RRIRWRPPRLPRPRPRPGLKPRP | -0.109
RRIRLRPPRLPRPRPRPMQCPRP | -0.0717
RRIRYRPPRLPRPRPRPKSKPRP | -0.428
RRIRNRPPRLPRPRPRPHCDPRP | -0.292
RRIRKRPPRLPRPRPRPLGRPRP | 1.35
RRIRWRPPRLPRPRPRPSWHPRP | 0.0186

Sequence | shrunken log2 fold change
RRIRVRPPRLPRPRPRPKMFPRP | -0.056
RRIRARPPRLPRPRPRPEDSPRP | 0.32
RRIRCRPPRLPRPRPRPLFTPRP | -0.42
RRIRSRPPRLPRPRPRPKMWPRP | 0.458
RRIRSRPPRLPRPRPRPNWPPRP | 0.278
RRIRVRPPRLPRPRPRPTTRPRP | 0.293
RRIRDRPPRLPRPRPRPHIVPRP | -0.146
RRIRPRPPRLPRPRPRPQHSPRP | -0.161
RRIRTRPPRLPRPRPRPWLYPRP | -0.161
RRIRTRPPRLPRPRPRPSCLPRP | -0.624
RRIRVRPPRLPRPRPRPEVSPRP | 0.0554
RRIRDRPPRLPRPRPRPGPMPRP | -0.00245
RRIRSRPPRLPRPRPRPTYLPRP | -0.399
RRIRFRPPRLPRPRPRPHSHPRP | -0.939
RRIRKRPPRLPRPRPRPMKGPRP | -0.156
RRIRLRPPRLPRPRPRPCAPPRP | 0.00325
RRIRQRPPRLPRPRPRPTDNPRP | -0.335
RRIRNRPPRLPRPRPRPMQNPRP | -0.11
RRIRFRPPRLPRPRPRPEVPPRP | -0.0248
RRIRWRPPRLPRPRPRPKKSPRP | 0.395
RRIRQRPPRLPRPRPRPYWSPRP | -0.117
RRIRCRPPRLPRPRPRPKHYPRP | -0.518
RRIRKRPPRLPRPRPRPQKDPRP | 0.00486
RRIRYRPPRLPRPRPRPGQDPRP | -0.346
RRIRCRPPRLPRPRPRPNLGPRP | -0.283

Sequence | shrunken log2 fold change
RRIRRRPPRLPRPRPRPEICPRP | 0.181
RRIRSRPPRLPRPRPRPAGVPRP | 0.0729
RRIRMRPPRLPRPRPRPFIMPRP | -0.158
RRIRARPPRLPRPRPRPFPQPRP | 0.512
RRIRVRPPRLPRPRPRPHWRPRP | 0.306
RRIRKRPPRLPRPRPRPSRDPRP | 0.0856
RRIRTRPPRLPRPRPRPWSRPRP | -0.0291
RRIRLRPPRLPRPRPRPPNAPRP | 0.121
RRIRPRPPRLPRPRPRPVECPRP | 0.00863
RRIRMRPPRLPRPRPRPRCMPRP | 0.511
RRIRERPPRLPRPRPRPPVEPRP | 0.268
RRIRCRPPRLPRPRPRPVKKPRP | 0.0604
RRIRKRPPRLPRPRPRPYCYPRP | -0.182
RRIRCRPPRLPRPRPRPRLMPRP | 0.174
RRIRWRPPRLPRPRPRPPRLPRP | 0.526
RRIRKRPPRLPRPRPRPTLDPRP | 0.877
RRIRKRPPRLPRPRPRPAPRPRP | 1.26
RRIRVRPPRLPRPRPRPTQLPRP | 0.504
RRIRTRPPRLPRPRPRPTAWPRP | 0.48
RRIRFRPPRLPRPRPRPFLNPRP | -0.484
RRIRDRPPRLPRPRPRPRMDPRP | -0.0354
RRIRSRPPRLPRPRPRPVGVPRP | 0.0685
RRIRCRPPRLPRPRPRPFEDPRP | -0.019
RRIRNRPPRLPRPRPRPRESPRP | -0.0379
RRIRNRPPRLPRPRPRPYETPRP | -0.0276

Sequence | shrunken log2 fold change
RRIRCRPPRLPRPRPRPSWVPRP | -0.273
RRIRNRPPRLPRPRPRPCMGPRP | -0.256
RRIRNRPPRLPRPRPRPRRMPRP | 0.207
RRIRFRPPRLPRPRPRPWSNPRP | -0.0867
RRIRLRPPRLPRPRPRPSGWPRP | 0.0673
RRIRVRPPRLPRPRPRPADHPRP | 0.206
RRIRVRPPRLPRPRPRPIAIPRP | -0.0841
RRIRPRPPRLPRPRPRPRKGPRP | 0.322
RRIRLRPPRLPRPRPRPTTQPRP | 0.216
RRIRPRPPRLPRPRPRPSANPRP | -0.00762
RRIRLRPPRLPRPRPRPDWWPRP | 0.0919
RRIRHRPPRLPRPRPRPYNAPRP | -0.00175
RRIRCRPPRLPRPRPRPSFVPRP | -0.68
RRIRNRPPRLPRPRPRPDHGPRP | -0.319
RRIRCRPPRLPRPRPRPYCLPRP | -0.442
RRIRFRPPRLPRPRPRPEQEPRP | -0.159
RRIRHRPPRLPRPRPRPQTAPRP | 0.00296
RRIRNRPPRLPRPRPRPIMHPRP | 0.00105
RRIRPRPPRLPRPRPRPYLLPRP | -1.57
RRIRHRPPRLPRPRPRPPNDPRP | -0.471
RRIRKRPPRLPRPRPRPICFPRP | 0.272
RRIRCRPPRLPRPRPRPSYAPRP | -0.544
RRIRRRPPRLPRPRPRPTEWPRP | 0.446
RRIRDRPPRLPRPRPRPAGWPRP | 1.05
RRIRLRPPRLPRPRPRPCVKPRP | 0.00159

Sequence | shrunken log2 fold change
RRIRPRPPRLPRPRPRPIGLPRP | 0.155
RRIRQRPPRLPRPRPRPDPFPRP | -0.401
RRIRVRPPRLPRPRPRPHRYPRP | -0.348
RRIRHRPPRLPRPRPRPYANPRP | -0.271
RRIRKRPPRLPRPRPRPVHKPRP | 0.288
RRIRNRPPRLPRPRPRPLLVPRP | -0.199
RRIRFRPPRLPRPRPRPASCPRP | 0.0375
RRIRSRPPRLPRPRPRPKWQPRP | 0.255
RRIRWRPPRLPRPRPRPAFIPRP | 0.0835
RRIRFRPPRLPRPRPRPWTEPRP | -0.119
RRIRKRPPRLPRPRPRPGVYPRP | 2.46
RRIRERPPRLPRPRPRPSHTPRP | -0.248
RRIRIRPPRLPRPRPRPLIYPRP | -0.255
RRIRLRPPRLPRPRPRPTFTPRP | -0.346
RRIRSRPPRLPRPRPRPIGHPRP | -0.171
RRIRIRPPRLPRPRPRPHQWPRP | -0.246
RRIRNRPPRLPRPRPRPDPSPRP | 0.152
RRIRCRPPRLPRPRPRPKCFPRP | -0.372
RRIRKRPPRLPRPRPRPAYTPRP | -0.0132
RRIRWRPPRLPRPRPRPIGTPRP | 0.175
RRIRVRPPRLPRPRPRPSMQPRP | -0.223
RRIRFRPPRLPRPRPRPFIYPRP | -0.714
RRIRIRPPRLPRPRPRPGLGPRP | 0.217
RRIRERPPRLPRPRPRPDMWPRP | -0.0874
RRIRRRPPRLPRPRPRPEWCPRP | 0.17
